Measurements from patent US20220372168A1.

Target: human FGFR1c/KLB receptor complex on cells (human) (UniProt P11362)
Test: cell-based or functional assay

Chain of human FGFR1c/KLB receptor complex on cells (human) (P11362 other isoform, or with tags, fused parts or gaps limits assumed, chain 1 of 2): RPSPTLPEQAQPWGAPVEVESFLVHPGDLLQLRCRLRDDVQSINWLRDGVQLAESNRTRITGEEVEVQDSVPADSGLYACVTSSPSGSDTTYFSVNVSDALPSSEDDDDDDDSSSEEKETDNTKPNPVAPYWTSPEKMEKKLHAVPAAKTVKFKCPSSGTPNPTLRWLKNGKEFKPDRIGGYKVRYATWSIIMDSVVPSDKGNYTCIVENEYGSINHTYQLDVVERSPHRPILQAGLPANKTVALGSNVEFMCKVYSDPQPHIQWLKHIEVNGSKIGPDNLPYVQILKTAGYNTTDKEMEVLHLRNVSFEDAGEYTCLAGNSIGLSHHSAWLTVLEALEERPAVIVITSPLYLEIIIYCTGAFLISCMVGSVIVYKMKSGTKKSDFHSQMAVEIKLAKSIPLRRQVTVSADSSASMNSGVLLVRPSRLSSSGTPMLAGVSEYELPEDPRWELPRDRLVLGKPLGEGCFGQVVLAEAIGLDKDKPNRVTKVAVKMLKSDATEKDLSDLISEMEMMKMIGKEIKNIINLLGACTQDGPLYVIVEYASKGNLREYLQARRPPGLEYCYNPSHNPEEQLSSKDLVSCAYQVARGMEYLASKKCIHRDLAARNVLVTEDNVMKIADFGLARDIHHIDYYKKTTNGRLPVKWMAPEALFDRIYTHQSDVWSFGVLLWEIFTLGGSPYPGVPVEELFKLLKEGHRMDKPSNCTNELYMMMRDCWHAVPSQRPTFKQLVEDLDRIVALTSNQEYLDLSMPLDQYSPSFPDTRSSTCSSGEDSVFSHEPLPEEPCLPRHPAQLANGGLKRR
Chain of human FGFR1c/KLB receptor complex on cells (human) (chain, as listed by the source limits assumed, chain 2 of 2): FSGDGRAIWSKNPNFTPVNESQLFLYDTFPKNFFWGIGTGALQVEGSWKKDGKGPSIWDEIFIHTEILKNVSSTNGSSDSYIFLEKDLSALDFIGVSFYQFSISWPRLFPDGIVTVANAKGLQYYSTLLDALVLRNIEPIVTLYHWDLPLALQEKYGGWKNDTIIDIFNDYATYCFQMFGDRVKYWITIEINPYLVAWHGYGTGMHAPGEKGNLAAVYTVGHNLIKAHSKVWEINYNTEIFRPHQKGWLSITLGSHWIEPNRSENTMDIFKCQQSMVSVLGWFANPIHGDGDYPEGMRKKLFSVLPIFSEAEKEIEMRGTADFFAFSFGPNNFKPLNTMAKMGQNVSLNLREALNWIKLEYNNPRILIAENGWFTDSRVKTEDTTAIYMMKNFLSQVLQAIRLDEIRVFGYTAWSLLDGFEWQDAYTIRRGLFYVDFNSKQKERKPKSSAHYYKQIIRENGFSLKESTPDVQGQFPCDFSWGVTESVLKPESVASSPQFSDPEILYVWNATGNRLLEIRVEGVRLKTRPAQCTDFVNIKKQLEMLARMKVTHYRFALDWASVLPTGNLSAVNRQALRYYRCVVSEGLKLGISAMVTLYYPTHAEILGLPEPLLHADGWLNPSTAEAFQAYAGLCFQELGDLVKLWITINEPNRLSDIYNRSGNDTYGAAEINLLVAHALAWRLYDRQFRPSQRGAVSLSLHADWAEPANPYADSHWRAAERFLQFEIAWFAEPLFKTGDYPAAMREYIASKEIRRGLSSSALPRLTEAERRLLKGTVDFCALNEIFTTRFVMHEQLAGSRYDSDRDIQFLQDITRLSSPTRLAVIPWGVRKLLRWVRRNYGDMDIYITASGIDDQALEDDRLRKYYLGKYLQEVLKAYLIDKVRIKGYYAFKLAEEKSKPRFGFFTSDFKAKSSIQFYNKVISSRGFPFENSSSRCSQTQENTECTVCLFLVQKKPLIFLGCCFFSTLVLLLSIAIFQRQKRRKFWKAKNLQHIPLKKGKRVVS

REGN1438 (6His-FGF21) (from UniProt Q9NSA1 29-209) (ligand)
% Act: 100%
EC50: 2.9 nM
Percent Activity %: 100%
